First the molecules themselves.
B1: IL6R-BP132/IL6R-L (antibody, human IgG1)
heavy: QVQLQESGPGLVKPSETLSLTCAVSGHSISHDHAWSWVRQPPGEGLEWIGFISYSGITNYNPSLQGRVTISRDNSKNTLYLQMNSLRAEDTAVYYCARSLARTTAMDYWGEGTLVTVSSASTKGPSVFPLAPSSKSTSGGTAALGCLVKDYFPEPVTVSWNSGALTSGVHTFPAVLQSSGLYSLSSVVTVPSSSLGTQTYICNVNHKPSNTKVDKKVEPKSCDKTHTCPPCPAPDLLGGDSVFLFPPKPKDTLMISRTPEVTCVVVDVSHEDPEVKFNWYVDGVEVHNAKTKPREEQYNSTYRVVSVLTVLHQDWLNGKEYKCKVSNAALPKPIEKTISKAKGQPREPQVYTLPPSRDELTKNQVSLTCLVKGFYPSDIAVEWESNGQPENNYKTTPPVLDSDGSFFLYSKLTVDKSRWQQGNVFSCSVMHEALHNHYTQESLSLSP
light: DIQMTQSPSSLSASVGDRVTITCRASQDISSYLNWYQQKPGKAPKLLIYYTSRLHSGVPSRFSGSGSGTDFTFTISSLQPEDIATYYCQQGNTLPYTFGQGTKVEIK
B2: IL6R-BP177/IL6R-L (antibody, human IgG1)
heavy: B1 heavy with L236Y, G239D, P273G, A328D
light: B1 light
B3: IL6R-BP186/IL6R-L (antibody, human IgG1)
heavy: B1 heavy with L236Y, G239D, P273G, Y298D
light: B1 light
B4: IL6R-G1d/IL6R-L (antibody, human IgG1)
heavy: not shown
light: B1 light
notes: also called IgG1
B5: IL6R-BP184/IL6R-L (antibody, human IgG1)
heavy: B1 heavy with P273G, A328K
light: B1 light
B6: IL6R-BP180/IL6R-L (antibody, human IgG1)
heavy: B1 heavy with D235E, G239D, P273G, A328K
light: B1 light
B7: IL6R-BP144/IL6R-L (antibody, human IgG1)
heavy: B1 heavy with D235E, G239D, K332A
light: B1 light
B8: IL6R-BP183/IL6R-L (antibody, human IgG1)
heavy: B1 heavy with L236Y, P273G
light: B1 light
B9: IL6R-BP185/IL6R-L (antibody, human IgG1)
heavy: B1 heavy with L236Y, G239D, P273G
light: B1 light
B10: IL6R-BP145/IL6R-L (antibody, human IgG1)
heavy: B1 heavy with D235E, L236Y, G239D, A328K, K332A
light: B1 light
B11: IL6R-BP148/IL6R-L (antibody, human IgG1)
heavy: B1 heavy with L236Y, G239D
light: B1 light
B12: IL6R-BP149/IL6R-L (antibody, human IgG1)
heavy: B1 heavy with L236Y, G239D, Y298D
light: B1 light
B13: IL6R-BP143/IL6R-L (antibody, human IgG1)
heavy: B1 heavy with D235E, L236Y, K332A
light: B1 light
B14: IL6R-BP179/IL6R-L (antibody, human IgG1)
heavy: B1 heavy with D235E, G239D, P273G
light: B1 light
B15: IL6R-BP150/IL6R-L (antibody, human IgG1)
heavy: B1 heavy with D235E, L236Y, G239D, K332R
light: B1 light
B16: IL6R-BP133/IL6R-L (antibody, human IgG1)
heavy: B1 heavy with L236Y, A328K
light: B1 light

Residue numbers refer to the chain shown, from its start.

The first test deals with T1, human FcγRIa (human, UniProt P12314 16-292, limits assumed).
T1 construct: also called FcgRIa; CD64
T1 sequence (P12314 16-292 limits assumed): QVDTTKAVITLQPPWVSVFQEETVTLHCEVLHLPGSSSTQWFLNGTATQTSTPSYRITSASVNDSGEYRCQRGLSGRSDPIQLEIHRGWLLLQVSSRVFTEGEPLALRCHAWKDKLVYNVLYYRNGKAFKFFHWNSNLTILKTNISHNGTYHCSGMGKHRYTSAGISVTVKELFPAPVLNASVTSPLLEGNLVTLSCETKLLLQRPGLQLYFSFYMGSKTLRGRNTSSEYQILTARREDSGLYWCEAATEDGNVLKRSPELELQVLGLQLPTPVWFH
Kind of test: SPR (Biacore), FcγR over captured antibody; binding amount / that of IL6R-BF648/IL6R-L x100.
Procedure: (§1) According to the following method, relative binding activities were calculated for the results of analyzing interactions with the respective FcγRs.
Regarding B1, the relative binding activity is 91 % of IL6R-BF648/IL6R-L.

On to B2, for which the relative binding activity is 57 % of IL6R-BF648/IL6R-L.

Turning to B3, the relative binding activity is 43 % of IL6R-BF648/IL6R-L.

For B4, the relative binding activity was 140 % of IL6R-BF648/IL6R-L.

Consider B5, for which the relative binding activity is 96 % of IL6R-BF648/IL6R-L.

Take B6: the relative binding activity is 29 % of IL6R-BF648/IL6R-L.

For the molecule B7, the relative binding activity was 64 % of IL6R-BF648/IL6R-L.

Turning to B8, the relative binding activity was 83 % of IL6R-BF648/IL6R-L.

In the case of B9, the relative binding activity was 47 % of IL6R-BF648/IL6R-L.

As for B10, the relative binding activity is 41 % of IL6R-BF648/IL6R-L.

In the case of B11, the relative binding activity was 33 % of IL6R-BF648/IL6R-L.

As for B12, the relative binding activity was 29 % of IL6R-BF648/IL6R-L.

Take B13: the relative binding activity is 86 % of IL6R-BF648/IL6R-L.

For B14, the relative binding activity was 39 % of IL6R-BF648/IL6R-L.

With B15, the relative binding activity was 30 % of IL6R-BF648/IL6R-L.

Turning to B16, the relative binding activity is 41 % of IL6R-BF648/IL6R-L.

The next test deals with T2, human FcγRIIb (human, UniProt P31994 43-217).
T2 construct: also called FcgRIIb; FcγIIB
T2 sequence: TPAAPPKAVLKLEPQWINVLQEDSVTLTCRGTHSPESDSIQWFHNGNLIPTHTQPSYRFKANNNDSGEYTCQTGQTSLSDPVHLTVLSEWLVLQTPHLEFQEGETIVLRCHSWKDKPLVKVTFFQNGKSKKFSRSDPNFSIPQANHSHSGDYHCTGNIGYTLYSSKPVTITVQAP
The test is described as above.
Procedure: as §1
For B1, the relative binding activity is 150 % of IL6R-BF648/IL6R-L.

For the molecule B2, the relative binding activity was 177 % of IL6R-BF648/IL6R-L.

For the molecule B3, the relative binding activity was 175 % of IL6R-BF648/IL6R-L.

As to B4, the relative binding activity is 62 % of IL6R-BF648/IL6R-L.

Take B5: the relative binding activity is 171 % of IL6R-BF648/IL6R-L.

For the molecule B6, the relative binding activity is 179 % of IL6R-BF648/IL6R-L.

As for B7, the relative binding activity is 121 % of IL6R-BF648/IL6R-L.

Take B8: the relative binding activity is 164 % of IL6R-BF648/IL6R-L.

Take B9: the relative binding activity is 179 % of IL6R-BF648/IL6R-L.

In the case of B10, the relative binding activity is 152 % of IL6R-BF648/IL6R-L.

As to B11, the relative binding activity is 176 % of IL6R-BF648/IL6R-L.

In the case of B12, the relative binding activity is 173 % of IL6R-BF648/IL6R-L.

Turning to B13, the relative binding activity is 133 % of IL6R-BF648/IL6R-L.

For the molecule B14, the relative binding activity was 177 % of IL6R-BF648/IL6R-L.

B15: the relative binding activity was 183 % of IL6R-BF648/IL6R-L.

B16: the relative binding activity was 137 % of IL6R-BF648/IL6R-L.

For another test, the target named is T3, human FcγRIIIa type V (human, UniProt P08637 17-208, limits assumed).
T3 construct: Allotype V158 was used; also called FcgRIIIaV; FcγRIIIa(V)
T3 sequence (P08637 other isoform, or with tags, fused parts or gaps limits assumed): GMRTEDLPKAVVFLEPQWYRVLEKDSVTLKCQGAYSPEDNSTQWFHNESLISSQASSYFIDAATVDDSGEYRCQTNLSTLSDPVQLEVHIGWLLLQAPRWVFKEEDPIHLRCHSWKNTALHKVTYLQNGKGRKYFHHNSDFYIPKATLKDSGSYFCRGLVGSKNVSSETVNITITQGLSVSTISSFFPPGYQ
Described as above.
Procedure: as §1
Take B1: the relative binding activity is 120 % of IL6R-BF648/IL6R-L.

With B2, the relative binding activity was 186 % of IL6R-BF648/IL6R-L.

As for B3, the relative binding activity is 143 % of IL6R-BF648/IL6R-L.

As to B4, the relative binding activity was 3350 % of IL6R-BF648/IL6R-L.

For the molecule B5, the relative binding activity was 106 % of IL6R-BF648/IL6R-L.

As to B6, the relative binding activity is 100 % of IL6R-BF648/IL6R-L.

For B7, the relative binding activity was 128 % of IL6R-BF648/IL6R-L.

On to B8, for which the relative binding activity is 113 % of IL6R-BF648/IL6R-L.

For the molecule B9, the relative binding activity is 191 % of IL6R-BF648/IL6R-L.

On to B10, for which the relative binding activity is 153 % of IL6R-BF648/IL6R-L.

Take B11: the relative binding activity is 227 % of IL6R-BF648/IL6R-L.

B12: the relative binding activity was 186 % of IL6R-BF648/IL6R-L.

In the case of B13, the relative binding activity is 114 % of IL6R-BF648/IL6R-L.

For B14, the relative binding activity was 125 % of IL6R-BF648/IL6R-L.

As for B15, the relative binding activity is 204 % of IL6R-BF648/IL6R-L.

Regarding B16, the relative binding activity was 114 % of IL6R-BF648/IL6R-L.

The target of another test is T4, human FcγRIIa type R (human, UniProt P12318 36-217).
T4 construct: also called FcgRIIaR; FcγRIIa(R)
T4 chain: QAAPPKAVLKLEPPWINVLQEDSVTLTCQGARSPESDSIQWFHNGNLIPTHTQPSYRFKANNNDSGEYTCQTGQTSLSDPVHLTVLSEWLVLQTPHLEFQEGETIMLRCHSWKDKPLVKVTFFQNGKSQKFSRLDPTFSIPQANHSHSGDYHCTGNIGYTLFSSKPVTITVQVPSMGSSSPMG
The description is as above.
Procedure: as §1
Regarding B1, the relative binding activity was 191 % of IL6R-BF648/IL6R-L.

In the case of B2, the relative binding activity was 691 % of IL6R-BF648/IL6R-L.

Regarding B3, the relative binding activity is 614 % of IL6R-BF648/IL6R-L.

In the case of B4, the relative binding activity is 650 % of IL6R-BF648/IL6R-L.

On to B5, for which the relative binding activity is 436 % of IL6R-BF648/IL6R-L.

Turning to B6, the relative binding activity was 602 % of IL6R-BF648/IL6R-L.

For the molecule B7, the relative binding activity is 204 % of IL6R-BF648/IL6R-L.

As to B8, the relative binding activity is 423 % of IL6R-BF648/IL6R-L.

For the molecule B9, the relative binding activity is 670 % of IL6R-BF648/IL6R-L.

As to B10, the relative binding activity is 350 % of IL6R-BF648/IL6R-L.

Take B11: the relative binding activity was 603 % of IL6R-BF648/IL6R-L.

In the case of B12, the relative binding activity is 539 % of IL6R-BF648/IL6R-L.

As for B13, the relative binding activity was 238 % of IL6R-BF648/IL6R-L.

In the case of B14, the relative binding activity was 570 % of IL6R-BF648/IL6R-L.

In the case of B15, the relative binding activity is 757 % of IL6R-BF648/IL6R-L.

As to B16, the relative binding activity is 174 % of IL6R-BF648/IL6R-L.

In another test the target is T5, human FcγRIIa type H (human, UniProt P12318 36-217).
T5 construct: also called FcgRIIaH; FcγRIIa(H)
T5 sequence: T4 chain with R133H
Described as above.
Procedure: as §1
As to B1, the relative binding activity was 130 % of IL6R-BF648/IL6R-L.

With B2, the relative binding activity is 409 % of IL6R-BF648/IL6R-L.

For the molecule B3, the relative binding activity was 368 % of IL6R-BF648/IL6R-L.

Turning to B4, the relative binding activity is 1670 % of IL6R-BF648/IL6R-L.

For B5, the relative binding activity is 131 % of IL6R-BF648/IL6R-L.

As to B6, the relative binding activity was 203 % of IL6R-BF648/IL6R-L.

Take B7: the relative binding activity is 108 % of IL6R-BF648/IL6R-L.

As to B8, the relative binding activity was 191 % of IL6R-BF648/IL6R-L.

As for B9, the relative binding activity is 446 % of IL6R-BF648/IL6R-L.

Regarding B10, the relative binding activity is 224 % of IL6R-BF648/IL6R-L.

For B11, the relative binding activity is 462 % of IL6R-BF648/IL6R-L.

Regarding B12, the relative binding activity is 401 % of IL6R-BF648/IL6R-L.

Take B13: the relative binding activity was 143 % of IL6R-BF648/IL6R-L.

On to B14, for which the relative binding activity was 226 % of IL6R-BF648/IL6R-L.

For the molecule B15, the relative binding activity is 770 % of IL6R-BF648/IL6R-L.

Turning to B16, the relative binding activity was 151 % of IL6R-BF648/IL6R-L.

(Values after patent US20140105889A1 (published 2014).)
